T1: EsCas13d, nuclease-dead (Eubacterium siraeum, UniProt B0MS50, R295A;H300A;R849A;H854A)
T1 sequence: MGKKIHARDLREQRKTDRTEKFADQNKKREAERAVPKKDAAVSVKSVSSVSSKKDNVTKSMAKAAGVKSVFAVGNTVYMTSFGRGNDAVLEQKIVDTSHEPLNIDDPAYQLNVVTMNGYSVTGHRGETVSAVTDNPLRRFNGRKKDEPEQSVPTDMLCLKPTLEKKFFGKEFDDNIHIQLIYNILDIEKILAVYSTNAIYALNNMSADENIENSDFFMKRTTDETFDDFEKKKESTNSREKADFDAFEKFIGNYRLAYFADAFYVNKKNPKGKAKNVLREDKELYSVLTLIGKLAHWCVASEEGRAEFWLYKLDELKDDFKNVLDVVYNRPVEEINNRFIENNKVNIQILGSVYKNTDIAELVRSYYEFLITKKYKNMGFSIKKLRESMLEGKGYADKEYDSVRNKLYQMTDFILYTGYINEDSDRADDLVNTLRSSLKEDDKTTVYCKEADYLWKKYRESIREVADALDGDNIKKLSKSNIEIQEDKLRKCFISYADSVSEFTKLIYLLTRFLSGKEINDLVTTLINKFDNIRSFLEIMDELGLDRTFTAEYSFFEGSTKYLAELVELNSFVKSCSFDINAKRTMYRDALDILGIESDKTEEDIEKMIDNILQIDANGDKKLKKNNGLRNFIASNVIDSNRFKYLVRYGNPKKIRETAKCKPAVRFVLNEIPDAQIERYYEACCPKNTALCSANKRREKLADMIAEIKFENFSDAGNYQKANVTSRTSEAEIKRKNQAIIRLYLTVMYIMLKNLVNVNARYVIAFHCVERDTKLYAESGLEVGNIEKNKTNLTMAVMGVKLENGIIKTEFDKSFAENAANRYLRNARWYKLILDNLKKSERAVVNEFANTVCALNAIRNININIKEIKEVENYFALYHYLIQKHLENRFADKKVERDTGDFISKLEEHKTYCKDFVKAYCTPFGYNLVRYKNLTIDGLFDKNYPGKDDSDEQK

B1: target 2 MT 5'PFS CUA 3'PFS CAC (mixed)
RNA 1: CACCCGUGCAAAAUUGCAGGGGUCUAAAACCUUCUCCAAAUUGUUUCAUCCU
RNA 2: GGGAAUGGAUCCACAUCUACGAAUUCCUAAGGAUGAAACAAUUUGGAGAAGCACAGAUCGGAAGAGCACACGU
B2: target 2 MT 5'PFS ACC 3'PFS AUA (mixed)
RNA 1: CACCCGUGCAAAAUUGCAGGGGUCUAAAACCUUCUCCAAAUUGUUUCAUCCU
RNA 2: GGGAAUGGAUCCACAUCUACGAAUUCACCAGGAUGAAACAAUUUGGAGAAGAUAAGAUCGGAAGAGCACACGU
B3: target 2 MT 5'PFS ACC 3'PFS AUC (mixed)
RNA 1: CACCCGUGCAAAAUUGCAGGGGUCUAAAACCUUCUCCAAAUUGUUUCAUCCU
RNA 2: GGGAAUGGAUCCACAUCUACGAAUUCACCAGGAUGAAACAAUUUGGAGAAGAUCAGAUCGGAAGAGCACACGU
B4: target 1 insG 3' of 16,insU 3' of 13 (mixed)
RNA 1: CACCCGUGCAAAAAUGCAGGGGUCUAAAACUGAGCGGAUAACCUCUCUAUGG
RNA 2: GGGAAUGGAUCCACAUCUACGAAUUCGUACCAUAGAGGAGUGUUAUCCGCUCACCGAGAUCGGAAGAGCACACGU
B5: target 2 MT 5'PFS ACC 3'PFS AUG (mixed)
RNA 1: CACCCGUGCAAAAUUGCAGGGGUCUAAAACCUUCUCCAAAUUGUUUCAUCCU
RNA 2: GGGAAUGGAUCCACAUCUACGAAUUCACCAGGAUGAAACAAUUUGGAGAAGAUGAGAUCGGAAGAGCACACGU
B6: target 2 MT 5'PFS GAC 3'PFS CGA (mixed)
RNA 1: CACCCGUGCAAAAUUGCAGGGGUCUAAAACCUUCUCCAAAUUGUUUCAUCCU
RNA 2: GGGAAUGGAUCCACAUCUACGAAUUCGACAGGAUGAAACAAUUUGGAGAAGCGAAGAUCGGAAGAGCACACGU
B7: target 2 MT 5'PFS ACC 3'PFS AUU (mixed)
RNA 1: CACCCGUGCAAAAUUGCAGGGGUCUAAAACCUUCUCCAAAUUGUUUCAUCCU
RNA 2: GGGAAUGGAUCCACAUCUACGAAUUCACCAGGAUGAAACAAUUUGGAGAAGAUUAGAUCGGAAGAGCACACGU
B8: target 2 MT 5'PFS CGC 3'PFS CCG (mixed)
RNA 1: CACCCGUGCAAAAUUGCAGGGGUCUAAAACCUUCUCCAAAUUGUUUCAUCCU
RNA 2: GGGAAUGGAUCCACAUCUACGAAUUCCGCAGGAUGAAACAAUUUGGAGAAGCCGAGAUCGGAAGAGCACACGU
B9: target 2 MT 5'PFS CGC 3'PFS CCA (mixed)
RNA 1: CACCCGUGCAAAAUUGCAGGGGUCUAAAACCUUCUCCAAAUUGUUUCAUCCU
RNA 2: GGGAAUGGAUCCACAUCUACGAAUUCCGCAGGAUGAAACAAUUUGGAGAAGCCAAGAUCGGAAGAGCACACGU
B10: target 2 MT 5'PFS ACA 3'PFS UCC (mixed)
RNA 1: CACCCGUGCAAAAUUGCAGGGGUCUAAAACCUUCUCCAAAUUGUUUCAUCCU
RNA 2: GGGAAUGGAUCCACAUCUACGAAUUCACAAGGAUGAAACAAUUUGGAGAAGUCCAGAUCGGAAGAGCACACGU
B11: target 2 MT 5'PFS UAA 3'PFS CGC (mixed)
RNA 1: CACCCGUGCAAAAUUGCAGGGGUCUAAAACCUUCUCCAAAUUGUUUCAUCCU
RNA 2: GGGAAUGGAUCCACAUCUACGAAUUCUAAAGGAUGAAACAAUUUGGAGAAGCGCAGAUCGGAAGAGCACACGU
B12: target 2 MT 5'PFS UAC 3'PFS UAC (mixed)
RNA 1: CACCCGUGCAAAAUUGCAGGGGUCUAAAACCUUCUCCAAAUUGUUUCAUCCU
RNA 2: GGGAAUGGAUCCACAUCUACGAAUUCUACAGGAUGAAACAAUUUGGAGAAGUACAGAUCGGAAGAGCACACGU
B13: target 2 MT 5'PFS UAC 3'PFS UAG (mixed)
RNA 1: CACCCGUGCAAAAUUGCAGGGGUCUAAAACCUUCUCCAAAUUGUUUCAUCCU
RNA 2: GGGAAUGGAUCCACAUCUACGAAUUCUACAGGAUGAAACAAUUUGGAGAAGUAGAGAUCGGAAGAGCACACGU
B14: target 2 MT 5'PFS UAC 3'PFS AGA (mixed)
RNA 1: CACCCGUGCAAAAUUGCAGGGGUCUAAAACCUUCUCCAAAUUGUUUCAUCCU
RNA 2: GGGAAUGGAUCCACAUCUACGAAUUCUACAGGAUGAAACAAUUUGGAGAAGAGAAGAUCGGAAGAGCACACGU
B15: target 1 C4A,C21A (mixed)
RNA 1: CACCCGUGCAAAAAUGCAGGGGUCUAAAACUGAGCGGAUAACCUCUCUAUGG
RNA 2: GGGAAUGGAUCCACAUCUACGAAUUCGUACAAUAGAGAGGUUAUCCGAUCACCGAGAUCGGAAGAGCACACGU
B16: target 2 MT 5'PFS ACA 3'PFS UCU (mixed)
RNA 1: CACCCGUGCAAAAUUGCAGGGGUCUAAAACCUUCUCCAAAUUGUUUCAUCCU
RNA 2: GGGAAUGGAUCCACAUCUACGAAUUCACAAGGAUGAAACAAUUUGGAGAAGUCUAGAUCGGAAGAGCACACGU
B17: target 2 MT 5'PFS UAC 3'PFS AGC (mixed)
RNA 1: CACCCGUGCAAAAUUGCAGGGGUCUAAAACCUUCUCCAAAUUGUUUCAUCCU
RNA 2: GGGAAUGGAUCCACAUCUACGAAUUCUACAGGAUGAAACAAUUUGGAGAAGAGCAGAUCGGAAGAGCACACGU
B18: target 2 MT 5'PFS UAC 3'PFS AGG (mixed)
RNA 1: CACCCGUGCAAAAUUGCAGGGGUCUAAAACCUUCUCCAAAUUGUUUCAUCCU
RNA 2: GGGAAUGGAUCCACAUCUACGAAUUCUACAGGAUGAAACAAUUUGGAGAAGAGGAGAUCGGAAGAGCACACGU
B19: target 2 MT 5'PFS UGC 3'PFS CCG (mixed)
RNA 1: CACCCGUGCAAAAUUGCAGGGGUCUAAAACCUUCUCCAAAUUGUUUCAUCCU
RNA 2: GGGAAUGGAUCCACAUCUACGAAUUCUGCAGGAUGAAACAAUUUGGAGAAGCCGAGAUCGGAAGAGCACACGU
B20: target 2 MT 5'PFS UGC 3'PFS CCA (mixed)
RNA 1: CACCCGUGCAAAAUUGCAGGGGUCUAAAACCUUCUCCAAAUUGUUUCAUCCU
RNA 2: GGGAAUGGAUCCACAUCUACGAAUUCUGCAGGAUGAAACAAUUUGGAGAAGCCAAGAUCGGAAGAGCACACGU
B21: target 2 MT 5'PFS CGG 3'PFS UGC (mixed)
RNA 1: CACCCGUGCAAAAUUGCAGGGGUCUAAAACCUUCUCCAAAUUGUUUCAUCCU
RNA 2: GGGAAUGGAUCCACAUCUACGAAUUCCGGAGGAUGAAACAAUUUGGAGAAGUGCAGAUCGGAAGAGCACACGU
B22: target 2 MT 5'PFS CGG 3'PFS UGA (mixed)
RNA 1: CACCCGUGCAAAAUUGCAGGGGUCUAAAACCUUCUCCAAAUUGUUUCAUCCU
RNA 2: GGGAAUGGAUCCACAUCUACGAAUUCCGGAGGAUGAAACAAUUUGGAGAAGUGAAGAUCGGAAGAGCACACGU
B23: target 2 MT 5'PFS CGG 3'PFS UGU (mixed)
RNA 1: CACCCGUGCAAAAUUGCAGGGGUCUAAAACCUUCUCCAAAUUGUUUCAUCCU
RNA 2: GGGAAUGGAUCCACAUCUACGAAUUCCGGAGGAUGAAACAAUUUGGAGAAGUGUAGAUCGGAAGAGCACACGU
B24: target 2 MT 5'PFS AGU 3'PFS CCG (mixed)
RNA 1: CACCCGUGCAAAAUUGCAGGGGUCUAAAACCUUCUCCAAAUUGUUUCAUCCU
RNA 2: GGGAAUGGAUCCACAUCUACGAAUUCAGUAGGAUGAAACAAUUUGGAGAAGCCGAGAUCGGAAGAGCACACGU
B25: target 2 MT 5'PFS AGU 3'PFS CCA (mixed)
RNA 1: CACCCGUGCAAAAUUGCAGGGGUCUAAAACCUUCUCCAAAUUGUUUCAUCCU
RNA 2: GGGAAUGGAUCCACAUCUACGAAUUCAGUAGGAUGAAACAAUUUGGAGAAGCCAAGAUCGGAAGAGCACACGU
B26: target 1 U3G,A18C (mixed)
RNA 1: CACCCGUGCAAAAAUGCAGGGGUCUAAAACUGAGCGGAUAACCUCUCUAUGG
RNA 2: GGGAAUGGAUCCACAUCUACGAAUUCGUACCAUCGAGAGGUUAUCCGCGCACCGAGAUCGGAAGAGCACACGU
B27: target 1 insC 3' of 13,insA 3' of 6 (mixed)
RNA 1: CACCCGUGCAAAAAUGCAGGGGUCUAAAACUGAGCGGAUAACCUCUCUAUGG
RNA 2: GGGAAUGGAUCCACAUCUACGAAUUCGUACCAUAGAGAGCGUUAUCCAGCUCACCGAGAUCGGAAGAGCACACGU
B28: target 2 MT 5'PFS GUG 3'PFS CCA (mixed)
RNA 1: CACCCGUGCAAAAUUGCAGGGGUCUAAAACCUUCUCCAAAUUGUUUCAUCCU
RNA 2: GGGAAUGGAUCCACAUCUACGAAUUCGUGAGGAUGAAACAAUUUGGAGAAGCCAAGAUCGGAAGAGCACACGU

The binders below were run against T1, EsCas13d, nuclease-dead (assay: crRNA (strand 1, pre-loaded); Mg2+; 40 mM Tris-HCl pH 7.5, 150 mM NaCl, 6 mM MgCl2, 1 mM DTT, 0.1% Tween-20, 0.2 mg/ml BSA; 25 C; 10 min per concentration, then washed). Conditions: tags: His6-TwinStrep-SUMO cleaved; N-terminal SNAP kept (SNAP-Surface 488); label: 3' end held by stalled T7 RNA polymerase.

First: B1
Second: B2
The Kd of the first is 2.2-fold lower: 3.01 ± 0.32 nM for the first, 6.7 ± 3.2 nM for the second. The first binds more tightly here.

Going from B3 to B4, the Kd rises from 5.5 ± 0.7 nM to 23.2 ± 3.2 nM (4.2-fold). The first binds more tightly here.

Going from B5 to B6, the Kd rises from 5.8 ± 1.5 nM to 13.6 ± 1.5 nM (2.3-fold). The first binds more tightly here.

B7 and B8 are within 1.5-fold of each other in Kd: roughly 12 nM for the first, 8.1 ± 1.3 nM for the second.

First: B9
Second: B10
The Kd of the first is 2.2-fold higher: 22 ± 4 nM for the first, 10 ± 2.5 nM for the second. The second binds more tightly here.

B11 and B12 are within 1.5-fold of each other in Kd: 4.3 ± 0.5 nM for the first, 6.2 ± 0.8 nM for the second.

B13 and B14 are the same in Kd: 6.7 ± 0.6 nM for the first, 6.7 ± 0.9 nM for the second.

First: B15
Second: B16
The Kd of the first is 4.8-fold higher: 41 ± 9 nM for the first, 8.6 ± 2.3 nM for the second. The second binds more tightly here.

B17 and B18 are within error of each other in Kd: 4.2 ± 0.5 nM for the first, 4.7 ± 0.7 nM for the second.

Compared with B19, B20 is 3.8-fold lower in Kd: 61 ± 15 nM for the first, 16 ± 5 nM for the second. The second binds more tightly here.

Compared with B21, B22 is 1.6-fold higher in Kd: 4.3 ± 0.5 nM for the first, 6.9 ± 1.3 nM for the second.

B23 and B24 are within error of each other in Kd: 9.3 ± 1.6 nM for the first, 10.2 ± 0.9 nM for the second.

B25 and B26 are within 1.5-fold of each other in Kd: 36 ± 11 nM for the first, 52 ± 4 nM for the second.

First: B27
Second: B28
The Kd of the first is 1.8-fold lower: 11.7 ± 0.9 nM for the first, 21.2 ± 1.8 nM for the second. The first binds more tightly here.

— paper PMC10786891, “Massively parallel profiling of RNA-targeting CRISPR-Cas13d”
